In patent US20030109454A1 (ADHEREX TECHNOLOGIES, published 2003):

molecular target: N-cadherin expressed on transfected 3T3 cells; test: cell-based or functional assay

Row | Binder | EC50 of inhibition of neurite outgrowth on 3T3 cells expressing N-cadherin [mM]
1 | Ac-CINPC-NH2 (also: cyclic peptide, ring type not given here) [N-Ac-CINPC-NH2] | 0.0143
2 | Ac-CINPIC-NH2 (not fully specified (bridges); also: cyclic peptide, linkage not given here) [N-Ac-CINPIC-NH2] | 0.0382
3 | Ac-CINPISC-NH2 (not fully specified (bridges); printed as N-Ac-CINPISC-NH2; also: cyclic peptide, linkage not given here) [N-Ac-CINPISC-NH2] | 0.0381

molecular target: N-cadherin expressed on transfected 3T3 cells; test: cell-based or functional assay; remark: another data set of the same source

Row | Binder | EC50 of inhibition of neurite outgrowth [mM]
4 | Ac-WLKIDPVNGQI-NH2 [N-Ac-WLKIDPVNGQI-NH2] | 0.046

molecular target: N-cadherin expressed on transfected 3T3 cells; test: cell-based or functional assay; remark: another data set of the same source

Row | Binder | percent inhibition of neurite outgrowth, peptide at 100 µg/ml [%] | percent inhibition of neurite outgrowth, peptide at 33 µg/ml [%] | percent inhibition of neurite outgrowth, peptide at 250 µg/ml [%]
5 | H-LKIDPANGQI-OH [H-LKIDPANGQI-OH] | 56.8 |  | 
6 | Ac-CIDPVNC-NH2 (not fully specified (bridges); printed as N-Ac-CIDPVNC-NH2; also: cyclic peptide, linkage not given here) [N-Ac-CIDPVNC-NH2] | 75.8 | 40.6 | 96.4
7 | Ac-IDPVNGQ-NH2 [N-Ac-IDPVNGQ-NH2] | 56.4 | 34.3 | 85.6
8 | Ac-WLKIDPVNGQI-NH2 [N-Ac-WLKIDPVNGQI-NH2] | 66.9 | 19.8 | 83.5
9 | Ac-NLKIDPVNGQI-NH2 [N-Ac-NLKIDPVNGQI-NH2] | 67.8 | 25.6 | 86.8
10 | H-WLKIDPVNGQI-OH [H-WLKIDPVNGQI-OH] | 76.1 |  | 
11 | Ac-WLKADPVNGQI-NH2 [N-Ac-WLKADPVNGQI-NH2] | 22.2 |  | 54.7
12 | H-LKIDPVNGQI-OH [H-LKIDPVNGQI-OH] | 46 |  | 
13 | Ac-WLKADAVNGQI-NH2 [N-Ac-WLKADAVNGQI-NH2] | 10.5 |  | 19.7
14 | H-LKIDAVNGQI-OH [H-LKIDAVNGQI-OH] | 104 |  | 
15 | Ac-WLKIDAVNGQI-NH2 [N-Ac-WLKIDAVNGQI-NH2] | 12.4 |  | 52.3

molecular target: N-cadherin expressed on transfected 3T3 cells; test: cell-based or functional assay; remark: another data set of the same source

Row | Binder | percent inhibition of neurite outgrowth on 3T3 cells expressing N-cadherin, peptide at 100 µg/ml [%]
16 | Ac-LNPISGQ-NH2 [N-Ac-LNPISGQ-NH2] | 19.2
17 | Ac-INPISGQ-NH2 [N-Ac-INPISGQ-NH2] | 94.5
18 | Ac-INAISGQ-NH2 [N-Ac-INAISGQ-NH2] | 37.2
19 | Ac-INPASGQ-NH2 [N-Ac-INPASGQ-NH2] | 7.2
